In one assay the target is rc.73-DD (mouse). The experiment in a line: SPR; BIAcore 8K, 25 °C, HBS-EP+; antibodies with mIgG-Fc captured on a CM5 chip with immobilised anti-mouse antibodies; FcγRs injected at 400 to 3.125 nM (1:2 dilutions), 30 µL/min, 90 s association, 120 s dissociation; 1:1 Langmuir model.
The target of a further assay is rc.hu1-23 (mouse). The description is as above.
The target of another assay is hu1‐23 (human). As to the kind of experiment: SPR; BIAcore 8K, 25 °C, HBS‐EP+ buffer; antibodies with hIgG‐Fc immobilised on a Series S Protein A sensor chip at 300 RU; recombinant mouse FcγRs injected at 400 to 3.125 nM, 30 µL/min, 90 s association, 120 s dissociation; 1:1 Langmuir binding model. On the technique in general: SPR reads the build-up and loss of mass on a sensor chip optically.
Sequence of hu1‐23 (human) (heavy, as listed by the source, chain 1 of 2): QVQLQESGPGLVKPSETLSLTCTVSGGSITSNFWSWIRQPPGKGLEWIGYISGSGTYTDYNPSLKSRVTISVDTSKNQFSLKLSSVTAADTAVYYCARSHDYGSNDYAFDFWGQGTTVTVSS
Sequence of hu1‐23 (human) (light, as listed by the source, chain 2 of 2): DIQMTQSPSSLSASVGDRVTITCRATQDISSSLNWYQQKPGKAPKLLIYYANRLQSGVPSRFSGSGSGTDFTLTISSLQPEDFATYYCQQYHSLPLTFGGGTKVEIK

In a further assay the target is 73‐DY (human). Described as above.
Sequence of 73‐DY (human) (heavy, as listed by the source, chain 1 of 2): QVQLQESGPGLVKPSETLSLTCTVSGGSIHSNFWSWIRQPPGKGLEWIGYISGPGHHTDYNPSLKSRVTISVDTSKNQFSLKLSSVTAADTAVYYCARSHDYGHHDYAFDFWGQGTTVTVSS
Sequence of 73‐DY (human) (light, as listed by the source, chain 2 of 2): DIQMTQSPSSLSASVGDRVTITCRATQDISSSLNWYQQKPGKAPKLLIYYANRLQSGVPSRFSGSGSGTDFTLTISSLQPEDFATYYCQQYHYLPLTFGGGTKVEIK
A further assay addresses 73 (human). The description is as above.

Results on four molecules are retold here after PMC11022716.

What is called Kd is the constant that tells how readily two partners part at equilibrium.

B1: mouse FcγRII (receptor)
chain: THDLPKAVVKLEPPWIQVLKEDTVTLTCEGTHNPGNSSTQWFHNGRSIRSQVQASYTFKATVNDSGEYRCQMEQTRLSDPVDLGVISDWLLLQTPQLVFLEGETITLRCHSWRNKLLNRISFFHNEKSVRYHHYSSNFSIPKANHSHSGDYYCKGSLGRTLHQSKPVTITVQGPKSSRSLP
Consider B1, for which the Kd came to 2.97 nM in the assay with rc.73-DD (mouse); 196 nM with rc.hu1-23 (mouse); 300 nM in the assay with hu1‐23 (human); 9.72 nM in the assay with 73‐DY (human); 379 nM with 73 (human).

B2: mouse FcγRIII (receptor)
chain: ALPKAVVKLDPPWIQVLKEDMVTLMCEGTHNPGNSSTQWFHNGRSIRSQVQASYTFKATVNDSGEYRCQMEQTRLSDPVDLGVISDWLLLQTPQRVFLEGETITLRCHSWRNKLLNRISFFHNEKSVRYHHYKSNFSIPKANHSHSGDYYCKGSLGSTQHQSKPVTITVQDPATTSSISLVWYHT
Take B2: the Kd was 11.8 nM with rc.73-DD (mouse), 2680 nM with rc.hu1-23 (mouse), 233 nM with hu1‐23 (human) and 12 nM with 73‐DY (human).

B3: mouse FcγRI (receptor)
chain: EVVNATKAVITLQPPWVSIFQKENVTLWCEGPHLPGDSSTQWFINGTAVQISTPSYSIPEASFQDSGEYRCQIGSSMPSDPVQLQIHNDWLLLQASRRVLTEGEPLALRCHGWKNKLVYNVVFYRNGKSFQFSSDSEVAILKTNLSHSGIYHCSGTGRHRYTSAGVSITVKELFTTPVLRASVSSPFPEGSLVTLNCETNLLLQRPGLQLHFSFYVGSKILEYRNTSSEYHIARAEREDAGFYWCEVATEDSSVLKRSPELELQVLGPQSSAP
Take B3: the Kd in the assay with hu1‐23 (human) is 54.1 nM; with 73‐DY (human) it was 11.1 nM; with 73 (human), 45.2 nM.

B4: mouse FcγRIV (receptor)
chain: GLQKAVVNLDPKWVRVLEEDSVTLRCQGTFSPEDNSIKWFHNESLIPHQDANYVIQSARVKDSGMYRCQTALSTISDPVQLEVHMGWLLLQTTKWLFQEGDPIHLRCHSWQNRPVRKVTYLQNGKGKKYFHENSELLIPKATHNDSGSYFCRGLIGHNNKSSASFRISLGDPGSPSMFPPWHQ
For B4, the dissociation constant Kd was determined as 41.8 nM with hu1‐23 (human), 54.3 nM in the assay with 73‐DY (human) and 42.6 nM with 73 (human).
